Experimental findings from US10053497B2, “Therapeutic epitopes and uses thereof” (OXFORD UNIVERSITY INNOVATION LIMITED, priority 2002, dated 2018) are described below.

The experiment concerns the target T1, tTG (UniProt P08587).
T1 construct: purchased Sigma T-5398
T1 sequence (P08587 1-690): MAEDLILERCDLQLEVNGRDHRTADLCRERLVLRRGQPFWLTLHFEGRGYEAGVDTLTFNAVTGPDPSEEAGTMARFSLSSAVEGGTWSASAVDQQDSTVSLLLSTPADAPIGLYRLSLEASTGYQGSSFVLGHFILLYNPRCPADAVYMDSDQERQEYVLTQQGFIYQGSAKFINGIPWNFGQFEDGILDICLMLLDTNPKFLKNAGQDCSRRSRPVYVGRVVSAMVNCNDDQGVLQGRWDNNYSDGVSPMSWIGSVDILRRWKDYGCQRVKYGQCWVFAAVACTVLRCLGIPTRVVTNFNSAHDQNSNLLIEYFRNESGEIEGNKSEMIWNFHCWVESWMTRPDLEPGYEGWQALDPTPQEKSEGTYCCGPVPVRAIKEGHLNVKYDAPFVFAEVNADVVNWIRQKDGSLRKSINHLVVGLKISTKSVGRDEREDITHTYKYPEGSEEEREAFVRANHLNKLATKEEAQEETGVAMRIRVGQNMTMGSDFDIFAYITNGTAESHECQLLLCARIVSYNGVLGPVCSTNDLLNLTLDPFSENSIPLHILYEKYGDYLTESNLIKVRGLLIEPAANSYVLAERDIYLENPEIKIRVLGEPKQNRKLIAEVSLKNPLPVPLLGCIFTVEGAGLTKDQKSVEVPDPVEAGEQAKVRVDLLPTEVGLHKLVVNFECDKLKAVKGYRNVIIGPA
The experiment is described as follows: Deamidation of A-gliadin 56-75 by tTG (HPLC, amino acid sequencing). Type of experiment: biochemical, guinea pig. To be noted: tTG 50 μg/ml, 37° C., 2 hours. As for the experimental part:
A-gliadin 56-75 […] (SEQ ID NO:5) (0.1 μM) was incubated with tTG (50 μg/ml) at 37° C. for 2 hours. A single product was identified and purified by reverse phase HPLC. Amino acid analysis allowed % deamidation (Q→E) of each Gln residue in A-gliadin 56-75 (SEQ ID NO:5) attributable to tTG to be calculated (vertical axis).
Coeliac disease subjects following a gluten free diet, consumed 4 slices of gluten-containing bread (50 g/slice, Sainsbury's “standard white sandwich bread”) daily for 3 or 10 days. EMA was assessed the week before and up to two months after commencing the bread challenge. […] Peptides were assessed in duplicate wells, and Mycobacterium tuberculosis purified protein derivative (PPD RT49) (Serum Institute; Copenhagen, Denmark) (20 μg/ml) was included as a positive control in all assays. […] Digestion of gliadin was verified by SDS-PAGE and protein concentration assessed. α-Chymotrypsin-digested gliadin (640 μg/ml) and synthetic gliadin peptides (15-mers: 160 μg/ml, other peptides: 0.1 mM) were individually treated with tTG (Sigma; T-5398) ([…]) in PBS+CaCl2 1 mM for 2 h at 37° C. […] Deamidation of glutamyl residues was defined as the amount (pmol) of glutamate recovered expressed as a percent of the combined amount of glutamine and glutamate recovered in cycles 2, 4, 8, 10, 15 and 17 of the amino acid sequencing. […]

In the case of LQLQPFPQPQLPYPQPQSFP [A-gliadin 56-75], the “Glutamine residue deamidated by tTG” value was “Q65 (SEQ ID NO:5) was preferentially deamidated by tTG”.
